Measured values from publication doi:10.1101/2023.11.28.569006.

Key:
[1] = target: artificial chaperone ADGroEL_SacSm (complete heptameric ring) (not stated | Sulfolobus acidocaldarius); test: pull-down
[2] = target: hetero-oligomers with three or more ADGroEL_SacSm in their composition; test: pull-down

- stoichiometry N (αLA molecules per complete ring) [1]: 4
- stoichiometry N (αLA per ADGroEL) [2]: 0.5
B1: denatured alpha-Lactalbumin (αLA) (natural protein)
chain: EQLTKCEVFRELKDLKGYGGVSLPEWVCTTFHTSGYDTQAIVQNNDSTEYGLFQINNKIWCKDDQNPHSSNICNISCDKFLDDDLTDDIMCVKKILDKVGINYWLAHKALCSEKLDQWLCEKL
